In patent US20170081400A1 (CEPHALON, published 2017):

T1: human TL1A extracellular domain with N-terminal HIS and FLAG tag (human) (UniProt O95150)
T1 sequence: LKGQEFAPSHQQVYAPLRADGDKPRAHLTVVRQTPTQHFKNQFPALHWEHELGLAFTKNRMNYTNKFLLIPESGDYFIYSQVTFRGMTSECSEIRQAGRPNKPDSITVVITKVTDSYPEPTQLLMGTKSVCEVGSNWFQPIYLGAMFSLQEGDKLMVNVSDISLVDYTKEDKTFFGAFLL

T2: human TL1A extracellular domain with N-terminal HIS and FLAG tag (human, UniProt O95150 72-251)
T2 construct: the whole entry is named
T2 sequence: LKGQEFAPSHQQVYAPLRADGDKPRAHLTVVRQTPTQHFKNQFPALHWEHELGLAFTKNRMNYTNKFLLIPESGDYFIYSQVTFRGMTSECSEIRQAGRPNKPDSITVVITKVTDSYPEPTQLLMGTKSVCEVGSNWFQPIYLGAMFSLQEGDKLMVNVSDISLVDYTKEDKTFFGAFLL


Columns and labels:
[1] = target: T1, human TL1A extracellular domain with N-terminal HIS and FLAG tag (human); experiment: cell-based or functional assay
[2] = target: T2, human TL1A extracellular domain with …; experiment: SPR Run 4, purified Ab captured on Protein A, TL1A 5 ug/mL, timepoint 44
From the text: (§1) 1.5. Antibody expression and antigen binding as determined by SPR. Using a CM5 sensor chip (GE Healthcare) Protein A (Pierce) was coupled to the chip surface using an amine coupling kit (GE Healthcare). Protein A was coupled on flow cell 1 and 2 (or alternatively 3 and 4) using a BIACORE® T200. […] The amount of supernatant or purified protein (as well as the concentration) injected during the capture stage varied between runs and is specified in the header of the Tables 3-11. At the end of injection of the supernatant or purified antibody the change in response units was measured. This value was reported as Capture Level in Tables 3-11. […] The response units were measured prior to the end of the dissociation phase. […] The sensorgrams were double referenced (flow cell 2 is subtracted from flow cell 1 and a buffer blank). As there were a large number of antibody variants to screen, these were screened across different runs (Tables 3-11). […] A summary of the conditions used in each run is below:
(§2) 2.1. […] In some experiment the antibodies were purified using Protein A chromatography (See 1.4) and purified antibodies were used in BIACORE® (GE Healthcare) experiments.

[3] = target: T2, human TL1A extracellular domain with …; experiment: SPR Run 4, purified Ab captured on Protein A, TL1A 5 ug/mL, timepoint 220
From the text: as §1, §2

| Binder | Antibody IC50, TL1A induced caspase potency assay in TF-1 cells [1] [mg/L] | Fold improvement over 320-179, TL1A induced caspase potency assay in TF-1 cells [1] [fold] | TL1A Binding Level (Early) [2] [RU] | TL1A Binding Level (Late) [3] [RU] |
| --- | --- | --- | --- | --- |
| 320-313 (antibody, human IgG1, name in Kabat numbering, V domains shown, human IgG1, lambda) VH: QVQLVQSGAEVKKPGASVKVSCKASGYTFTSYDINWVRQAPGQGLEWMGWLNPNSGNTGYAQKFQGRVTMTADRSTSTAYMELSSLRSEDTAVYYCAREVPETAAFEYWGQGTLVTVSS VL: QSVLTQPPSVSGAPGQRVTISCTSSSSDIGAGLGVHWYQQLPGTAPKLLIEGYYNRPSGVPDRFSGSKSGTSASLTITGLLPEDEGDYYCHSYDGTLSALFGGGTKLTVLG | 0.02 | 2 | 141 | 132 |
| 320-360 (antibody, human IgG1, name in Kabat numbering, V domains shown, human IgG1, lambda) VH: QVQLVQSGAEVKKPGASVKVSCKASGYTFTSYDINWVRQAPGQGLEWMGWLNPNSGNTGYAQKFQGRVTMTADRSTSTAYMELSSLRSEDTAVYYCAREVPETAAFEYWGQGTLVTVSS VL: QSVLTQPPSVSGAPGQRVTISCTSSSSDIGAGLGVHWYQQLPGTAPKLLIEGYYNRPSGVPDRFSGSKSGTSASLTITGLLPEDEGDYYCQSYDGTQSALFGGGTKLTVLG | – | – | 86 | 53 |
| 320-365 (antibody, human IgG1, name in Kabat numbering, V domains shown, human IgG1, lambda) VH: QVQLVQSGAEVKKPGASVKVSCKASGYTFTSYDINWVRQAPGQGLEWMGWLNPNSGNTGYAQKFQGRVTMTADRSTSTAYMELSSLRSEDTAVYYCAREVPETAAFEYWGQGTLVTVSS VL: QSVLTQPPSVSGAPGQRVTISCTSSSSDIGAGLGVHWYQQLPGTAPKLLIEGYYNRPSGVPDRFSGSKSGTSASLTITGLLPEDEGDYYCQSYDGTLQALFGGGTKLTVLG | – | – | 141 | 128 |
| 320-367 (antibody, human IgG1, name in Kabat numbering, V domains shown, human IgG1, lambda) VH: QVQLVQSGAEVKKPGASVKVSCKASGYTFTSYDINWVRQAPGQGLEWMGWLNPNSGNTGYAQKFQGRVTMTADRSTSTAYMELSSLRSEDTAVYYCAREVPETAAFEYWGQGTLVTVSS VL: QSVLTQPPSVSGAPGQRVTISCTSSSSDIGAGLGVHWYQQLPGTAPKLLIEGYYNRPSGVPDRFSGSKSGTSASLTITGLLPEDEGDYYCQSYDGTLHALFGGGTKLTVLG | – | – | 119 | 116 |
| 320-370 (antibody, human IgG1, name in Kabat numbering, V domains shown, human IgG1, lambda) VH: QVQLVQSGAEVKKPGASVKVSCKASGYTFTSYDINWVRQAPGQGLEWMGWLNPNSGNTGYAQKFQGRVTMTADRSTSTAYMELSSLRSEDTAVYYCAREVPETAAFEYWGQGTLVTVSS VL: QSVLTQPPSVSGAPGQRVTISCTSSSSDIGAGLGVHWYQQLPGTAPKLLIEGYYNRPSGVPDRFSGSKSGTSASLTITGLLPEDEGDYYCQSYDGTLWALFGGGTKLTVLG | – | – | 66 | 39 |
| 320-358 (antibody, human IgG1, name in Kabat numbering, V domains shown, human IgG1, lambda) VH: QVQLVQSGAEVKKPGASVKVSCKASGYTFTSYDINWVRQAPGQGLEWMGWLNPNSGNTGYAQKFQGRVTMTADRSTSTAYMELSSLRSEDTAVYYCAREVPETAAFEYWGQGTLVTVSS VL: QSVLTQPPSVSGAPGQRVTISCTSSSSDIGAGLGVHWYQQLPGTAPKLLIEGYYNRPSGVPDRFSGSKSGTSASLTITGLLPEDEGDYYCQSYDGTASALFGGGTKLTVLG | – | – | 82 | 50 |
| 320-366 (antibody, human IgG1, name in Kabat numbering, V domains shown, human IgG1, lambda) VH: QVQLVQSGAEVKKPGASVKVSCKASGYTFTSYDINWVRQAPGQGLEWMGWLNPNSGNTGYAQKFQGRVTMTADRSTSTAYMELSSLRSEDTAVYYCAREVPETAAFEYWGQGTLVTVSS VL: QSVLTQPPSVSGAPGQRVTISCTSSSSDIGAGLGVHWYQQLPGTAPKLLIEGYYNRPSGVPDRFSGSKSGTSASLTITGLLPEDEGDYYCQSYDGTLDALFGGGTKLTVLG | – | – | 62 | 31 |
| 320-357 (antibody, human IgG1, name in Kabat numbering, V domains shown, human IgG1, lambda) VH: QVQLVQSGAEVKKPGASVKVSCKASGYTFTSYDINWVRQAPGQGLEWMGWLNPNSGNTGYAQKFQGRVTMTADRSTSTAYMELSSLRSEDTAVYYCAREVPETAAFEYWGQGTLVTVSS VL: QSVLTQPPSVSGAPGQRVTISCTSSSSDIGAGLGVHWYQQLPGTAPKLLIEGYYNRPSGVPDRFSGSKSGTSASLTITGLLPEDEGDYYCQSYDGYLSALFGGGTKLTVLG | – | – | 119 | 91 |
| 320-359 (antibody, human IgG1, name in Kabat numbering, V domains shown, human IgG1, lambda) VH: QVQLVQSGAEVKKPGASVKVSCKASGYTFTSYDINWVRQAPGQGLEWMGWLNPNSGNTGYAQKFQGRVTMTADRSTSTAYMELSSLRSEDTAVYYCAREVPETAAFEYWGQGTLVTVSS VL: QSVLTQPPSVSGAPGQRVTISCTSSSSDIGAGLGVHWYQQLPGTAPKLLIEGYYNRPSGVPDRFSGSKSGTSASLTITGLLPEDEGDYYCQSYDGTSSALFGGGTKLTVLG | – | – | 57 | 27 |
| 320-318 (antibody, human IgG1, name in Kabat numbering, V domains shown, human IgG1, lambda) VH: QVQLVQSGAEVKKPGASVKVSCKASGYTFTSYDINWVRQAPGQGLEWMGWLNPNSGNTGYAQKFQGRVTMTADRSTSTAYMELSSLRSEDTAVYYCAREVPETAAFEYWGQGTLVTVSS VL: QSVLTQPPSVSGAPGQRVTISCTSSSSDIGAGLGVHWYQQLPGTAPKLLIEGYYNRPSGVPDRFSGSKSGTSASLTITGLLPEDEGDYYCQAYDGTLSALFGGGTKLTVLG | 0.02 | 3 | 160 | 149 |
| 320-364 (antibody, human IgG1, name in Kabat numbering, V domains shown, human IgG1, lambda) VH: QVQLVQSGAEVKKPGASVKVSCKASGYTFTSYDINWVRQAPGQGLEWMGWLNPNSGNTGYAQKFQGRVTMTADRSTSTAYMELSSLRSEDTAVYYCAREVPETAAFEYWGQGTLVTVSS VL: QSVLTQPPSVSGAPGQRVTISCTSSSSDIGAGLGVHWYQQLPGTAPKLLIEGYYNRPSGVPDRFSGSKSGTSASLTITGLLPEDEGDYYCQSYDGTLAALFGGGTKLTVLG | – | – | 124 | 109 |
| 320-369 (antibody, human IgG1, name in Kabat numbering, V domains shown, human IgG1, lambda) VH: QVQLVQSGAEVKKPGASVKVSCKASGYTFTSYDINWVRQAPGQGLEWMGWLNPNSGNTGYAQKFQGRVTMTADRSTSTAYMELSSLRSEDTAVYYCAREVPETAAFEYWGQGTLVTVSS VL: QSVLTQPPSVSGAPGQRVTISCTSSSSDIGAGLGVHWYQQLPGTAPKLLIEGYYNRPSGVPDRFSGSKSGTSASLTITGLLPEDEGDYYCQSYDGTLLALFGGGTKLTVLG | – | – | 89 | 60 |
| 320-368 (antibody, human IgG1, name in Kabat numbering, V domains shown, human IgG1, lambda) VH: QVQLVQSGAEVKKPGASVKVSCKASGYTFTSYDINWVRQAPGQGLEWMGWLNPNSGNTGYAQKFQGRVTMTADRSTSTAYMELSSLRSEDTAVYYCAREVPETAAFEYWGQGTLVTVSS VL: QSVLTQPPSVSGAPGQRVTISCTSSSSDIGAGLGVHWYQQLPGTAPKLLIEGYYNRPSGVPDRFSGSKSGTSASLTITGLLPEDEGDYYCQSYDGTLKALFGGGTKLTVLG | – | – | 50 | 26 |
| 320-371 (antibody, human IgG1, name in Kabat numbering, V domains shown, human IgG1, lambda) VH: QVQLVQSGAEVKKPGASVKVSCKASGYTFTSYDINWVRQAPGQGLEWMGWLNPNSGNTGYAQKFQGRVTMTADRSTSTAYMELSSLRSEDTAVYYCAREVPETAAFEYWGQGTLVTVSS VL: QSVLTQPPSVSGAPGQRVTISCTSSSSDIGAGLGVHWYQQLPGTAPKLLIEGYYNRPSGVPDRFSGSKSGTSASLTITGLLPEDEGDYYCQSYDGTLYALFGGGTKLTVLG | – | – | 92 | 70 |
| 320-356 (antibody, human IgG1, name in Kabat numbering, V domains shown, human IgG1, lambda) VH: QVQLVQSGAEVKKPGASVKVSCKASGYTFTSYDINWVRQAPGQGLEWMGWLNPNSGNTGYAQKFQGRVTMTADRSTSTAYMELSSLRSEDTAVYYCAREVPETAAFEYWGQGTLVTVSS VL: QSVLTQPPSVSGAPGQRVTISCTSSSSDIGAGLGVHWYQQLPGTAPKLLIEGYYNRPSGVPDRFSGSKSGTSASLTITGLLPEDEGDYYCQSYDGWLSALFGGGTKLTVLG | – | – | 109 | 86 |
| 320-314 (antibody, human IgG1, name in Kabat numbering, V domains shown, human IgG1, lambda) VH: QVQLVQSGAEVKKPGASVKVSCKASGYTFTSYDINWVRQAPGQGLEWMGWLNPNSGNTGYAQKFQGRVTMTADRSTSTAYMELSSLRSEDTAVYYCAREVPETAAFEYWGQGTLVTVSS VL: QSVLTQPPSVSGAPGQRVTISCTSSSSDIGAGLGVHWYQQLPGTAPKLLIEGYYNRPSGVPDRFSGSKSGTSASLTITGLLPEDEGDYYCKSYDGTLSALFGGGTKLTVLG | 0.02 | 2 | 165 | 158 |
